Patent publication US20240076406A1, “SINGLE DOMAIN ANTIBODIES TARGETING CA-IX AS WELL AS COMPOSITIONS COMPRISING SAME” (National Research Council of Canada, priority 2021, published 2024)
Where two headings read alike, the source gives them in different places.

How the values were obtained:
dog CA-IX = dog CA-IX (Canis lupus familiaris, UniProt A0A8I3NCN1); assay: ELISA species cross reactivity, dog CA-IX; format: binding; conditions: 500 nM sdCA9-VHH
Protocol: (§1) Binding above background was measured in an ELISA assay for the binding of 500 nM of sdCA9-VHH antibodies to human CA-II, CA-IV, CA-IX, CA-XII and CA-XIV (isoform cross reactivity, upper panel), then CA-IX for mouse, human, cynomolgus monkey and dog (species cross reactivity, lower panel). (sdCA9-1-VHH ( ? ) and sdCA9-2-VHH ( ? )
(§2) Cross reactivity and CA-IX specificity. Binding specificity and species cross reactivity of two sdAb were tested in an ELISA assay using purified proteins for human, mouse, cynomolgus monkey and dog CA-IX.

human CA-IX = human CA-IX (Homo sapiens, UniProt Q16790); assay: ELISA species cross reactivity, human CA-IX; format: binding; conditions: 500 nM sdCA9-VHH
Protocol: as §1, §2

[1] = tested on: hCA-IX negative parental 67NR spheroids; assay: Spheroid growth inhibition, parental 67NR; format: cell-based, mouse; conditions: hCA-IX negative cells
Source text: (§3) Spheroid growth inhibition.

mouse CA-IX = mouse CA-IX (Mus musculus, UniProt Q8VHB5); assay: ELISA species cross reactivity, mouse CA-IX; format: binding; conditions: 500 nM sdCA9-VHH
mouse CA-IX, sequence (Q8VHB5 32-437): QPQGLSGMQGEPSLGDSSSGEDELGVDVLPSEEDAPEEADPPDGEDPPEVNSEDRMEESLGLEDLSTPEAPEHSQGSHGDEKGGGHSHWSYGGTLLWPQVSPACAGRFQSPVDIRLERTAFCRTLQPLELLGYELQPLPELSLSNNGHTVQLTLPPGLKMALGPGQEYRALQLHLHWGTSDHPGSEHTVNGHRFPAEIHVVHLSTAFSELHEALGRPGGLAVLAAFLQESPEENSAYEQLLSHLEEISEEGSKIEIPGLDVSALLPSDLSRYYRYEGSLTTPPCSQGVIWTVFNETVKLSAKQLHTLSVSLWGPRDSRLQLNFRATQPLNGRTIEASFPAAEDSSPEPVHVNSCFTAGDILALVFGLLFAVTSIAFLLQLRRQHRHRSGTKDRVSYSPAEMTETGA
Protocol: as §1, §2

[2] = target: T1, purified hCA-IX ECD dimer (Homo sapiens, UniProt Q16790); assay: In vitro rhCA-IX enzyme activity inhibition (4Mu-Ac hydrolysis); format: biochemical; conditions: for IC50: 4Mu-Ac substrate; for inhibition of hCA-IX enzyme activity, in words: hCA-IX dimer, 4Mu-Ac hydrolysis
T1 construct: in vitro enzyme activity assay using purified hCA-IX ECD dimer
Protocol: In vitro rhCA-IX enzyme activity inhibition. In order to examine the functional consequence of the binding of the two sdCA9-VHH antibodies to hCA-IX ECD, antibodies were tested in an in vitro enzyme activity assay using purified hCA-IX ECD dimer and 4-Methylumbelliferyl acetate (4Mu-Ac) as substrate.

dimeric CA-IX = target: T2, dimeric CA-IX (Homo sapiens, UniProt Q16790); assay: SPR binding affinity, VHH format, dimeric CA-IX; conditions: SPR data (FIG. 3A); monomer or dimer not specified
T2 construct: to the dimeric extracellular domain (ECD) of hCA-IX
Protocol: FIG. 3A is a graph showing the binding kinetics determined by surface plasmon resonance (SPR) for 3 CA-IX single domain antibodies (sdCA9-1, -2, -3-VHH) to the dimeric extracellular domain (ECD) of hCA-IX.
In vitro binding affinity/SPR. To evaluate the binding affinity (KD) of the VHH only format of the […] single domain antibodies, CA-IX monomer and dimer were immobilized on SA sensor chip (GE Healthcare) and serial dilutions of the sdAbs were injected over the surface (FIG. 3A). […] The two single domain antibodies sdCA9-1-VHH and sdCA9-2-VHH were selected for further characterizations.

[3] = tested on: 67NR^hCA-IX derived spheroids; assay: Spheroid growth inhibition, 67NR^hCA-IX; format: cell-based, mouse; conditions: for spheroid growth, different concentrations: monitored for 8 days, compared with 67NR derived spheroids
Source text: as §3

cyno CA-IX = assay: ELISA species cross reactivity, cynomolgus monkey CA-IX; format: binding; conditions: 500 nM sdCA9-VHH
Protocol: as §1, §2

[4] = [inhibitor] vs. normalized response - variable slope
[5] = [inhibitor] vs. normalized response - variable slope, read-out: IC50 (best fit value)

dog CA-IX, sequence (A0A8I3NCN1 38-461): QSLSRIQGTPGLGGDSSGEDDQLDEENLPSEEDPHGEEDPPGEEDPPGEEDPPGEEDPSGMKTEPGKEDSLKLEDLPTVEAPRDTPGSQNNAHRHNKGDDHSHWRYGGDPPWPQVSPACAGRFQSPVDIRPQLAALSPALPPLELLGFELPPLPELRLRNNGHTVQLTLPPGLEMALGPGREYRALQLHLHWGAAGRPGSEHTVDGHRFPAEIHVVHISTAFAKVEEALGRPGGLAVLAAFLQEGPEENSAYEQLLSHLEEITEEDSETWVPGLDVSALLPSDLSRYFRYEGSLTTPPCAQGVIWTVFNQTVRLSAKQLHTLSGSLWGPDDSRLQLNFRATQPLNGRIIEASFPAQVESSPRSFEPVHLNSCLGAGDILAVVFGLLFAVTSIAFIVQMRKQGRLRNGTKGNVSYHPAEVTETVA

B1: sdCA9-1-VHH: llama single domain antibody (VHH) binding CA-IX catalytic domain, amino acid sequence SEQ ID NO: 1 (protein)
VHH: QVQLVESGGGLVQAGGSLRLSCAASGFTFDDWAIGWFRQAPGKEREGVSCISKRHGTTHYADSVKGRFTISSDNAKNTVYLRMNGLKPEDTAVYYCAASSWGSCTVATMRDVDRYDYDYWGQGTQVTVSS
modifications: Amino acid sequence for sdCA9-1- VHH
- binding to dog CA-IX (dog CA-IX): binds
- binding to human CA-IX (human CA-IX): binds
- effect on parental 67NR spheroids [1]: hCA-IX non-specific phenotype
- binding to mouse CA-IX (mouse CA-IX): binds
- HillSlope (best fit value) [2, 4]: −0.1194
- IC50 [2, 5]: 111 nM
- inhibition of hCA-IX enzyme activity, in words [2]: only partially
- IC50 ([2]; hCA-IX-ECD dimer, read-out: IC50 values): ~100 nM
- binding to CA-IX by SPR, in words (dimeric CA-IX): bind with high affinity
- spheroid growth, different concentrations [3]: seemed not to be specific
- binding to cyno CA-IX (cyno CA-IX): binds

B2: sdCA9-2-VHH: llama single domain antibody (VHH) binding CA-IX catalytic domain, amino acid sequence SEQ ID NO: 5 (protein)
VHH: QVKLEESGGDLVQPGGSLRLSCAASGFTLDYYAIGWFRQAPGKEREGVSCFSSVDGSTYYADSVKGRFTISRDNAKNMVYLQMNSLKPEDTAIYYCAAELYGELGVATVQAMCRLTTPGGDYWGQGTQVTVSS
modifications: Amino acid sequence for sdCA9-2-VHH
- binding to human CA-IX (human CA-IX): selectively binds
- HillSlope (best fit value) [2, 4]: −0.2974
- IC50 [2, 5]: 48.4 nM
- inhibition of hCA-IX enzyme activity, in words [2]: inhibited the hCA-IX enzyme activity to similar levels achieved by SMI U104
- binding to CA-IX by SPR, in words (dimeric CA-IX): bind with high affinity
- growth of spheroids over time ([3]; 100 μg/mL): specifically inhibits the growth of 67NR^hCA-IX spheroids over time
- spheroid growth, different concentrations [3]: inhibited spheroid growth in a dose-dependent manner
- binding to cyno CA-IX (cyno CA-IX): selectively binds

B3: sdCA9-3-VHH: llama single domain antibody (VHH) binding CA-IX, amino acid sequence SEQ ID NO: 9 (protein)
VHH: QVQLVESGGGLVQAGDSLRLSCAASGGTFSRYGMGWFRQAPGKEREFVAAISGTGLNTYYMDSVKGRFTISRDNAENTVYLQMNSLKPEDTAVYYCARDRGGVEYDYWGQGTQVTVSS
modifications: A 118 amino acid sequence for CA9-3-VHH
- binding to CA-IX by SPR, in words (dimeric CA-IX): binds with high affinity but less so than the other two
